Laboratory results from patent US20250145694A1 (GUANGDONG FEIPENG BIOLOGICAL, published 2025).
Positions count from the first letter of the chain named. One block for each binder: values may come before it.

Assays:
[1] = target: T1, CTNI quality control recombinant antigen (human, UniProt P19429 1-210, limits assumed); assay: indirect ELISA, cTnI coated 1 ug/ml, antibody 0 ng/ml (blank)
T1 construct: Recombinant antigen produced by the applicant; also called CTNI quality control recombinant protein (antigen produced by the company); cardiac troponin I
Procedure: (§1) CTNI quality control recombinant antigen was diluted to 1 μg/ml with a coating solution and coated a microplate, 100 μL per well, overnight at 4° C.; on the next day, the microplate was washed with a washing solution twice and patted dry; a blocking solution (20% of BSA+80% of PBS) was added, 120 μL per well, 37° C., 1 h, patted dry; the diluted cTnI monoclonal antibodies were added, 100 μL/well, 37° C., 30 min; the microplate was washed with a washing solution 5 times, patted dry; goat anti-mouse IgG-HRP, 100 μL per well, 37° C., 30 min; the microplate was washed with a washing solution 5 times, patted dry; a color-developing solution A (50 μL/well) was added, a color-developing solution B (50 μL/well) was added, 10 min; a stop solution was added, 50 μL/well; OD values were read on microplate reader at 450 nm (reference, 630 nm).

[2] = target: T1, CTNI quality control recombinant antigen; assay: indirect ELISA, cTnI coated 1 ug/ml, antibody 0.457 ng/ml
Procedure: as §1

[3] = target: T1, CTNI quality control recombinant antigen; assay: indirect ELISA, cTnI coated 1 ug/ml, antibody 12.346 ng/ml
Procedure: as §1

[4] = target: T1, CTNI quality control recombinant antigen; assay: BLI, antibody on AMC sensor, cTnI in solution
Procedure: With an AMC sensor, the purified antibody was diluted to 10 μg/ml with PBST, and CTNI quality control recombinant protein (antigen produced by the company) was gradient diluted with PBST to 769.2 nmol/ml, 384.6 nmol/ml, 192.3 nmol/ml, 96.2 nmol/ml, 48.1 nmol/ml, 24 nmol/ml, 12 nmol/ml, and 0 nmol/ml.

[5] = target: T1, CTNI quality control recombinant antigen; assay: indirect ELISA, cTnI coated 1 ug/ml, antibody 0.051 ng/ml
Procedure: as §1

[6] = target: T1, CTNI quality control recombinant antigen; assay: indirect ELISA, cTnI coated 1 ug/ml, antibody 0.152 ng/ml
Procedure: as §1

[7] = target: T1, CTNI quality control recombinant antigen; assay: indirect ELISA, cTnI coated 1 ug/ml, antibody 1.372 ng/ml
Procedure: as §1

[8] = target: T1, CTNI quality control recombinant antigen; assay: indirect ELISA, cTnI coated 1 ug/ml, antibody 4.115 ng/ml
Procedure: as §1

T1 sequence (P19429 whole entry): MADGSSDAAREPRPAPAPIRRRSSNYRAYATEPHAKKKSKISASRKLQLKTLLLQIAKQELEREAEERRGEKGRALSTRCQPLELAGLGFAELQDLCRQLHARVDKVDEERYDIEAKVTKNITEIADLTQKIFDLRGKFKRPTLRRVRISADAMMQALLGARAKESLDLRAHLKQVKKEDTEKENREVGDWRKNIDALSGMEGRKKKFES

OD450 (reference 630 nm) [1]: 0.031 OD
OD450 (reference 630 nm) [2]: 0.086 OD
OD450 (reference 630 nm) [3]: 1.18 OD
Kd [4]: 21.6 nM
koff [4]: 0.000169 s⁻¹
kon [4]: 7830 M⁻¹ s⁻¹
OD450 (reference 630 nm) [5]: 0.04 OD
OD450 (reference 630 nm) [6]: 0.053 OD
OD450 (reference 630 nm) [7]: 0.194 OD
OD450 (reference 630 nm) [8]: 0.435 OD
B1: Anti-cTnI 8C4 recombinant antibody (WT) (antibody, mouse IgG1, kappa)
heavy: EVQMVESGGGLLKPGGSLKLSCAASGFTYSNYAMSWVRQTPEKRLEWVATISTGGSYSYYPDSVKGRFTISRDNAKNTLYLQMLSLRSEDTAMYYCARKDNYYGSTFMDYWGQGSSVTVSSAKTTPPSVYPLAPGSAAQTNSMVTLGCLVKGYFPEPVTVTWNSGSLSSGVHTFPAVLQSDLYTLSSSVTVPSSTWPSQTVTCNVAHPASSTKVDKKIVPRDCGCKPCICTVPEVSSVFIFPPKPKDVLTITLTPKVTCVVVDISKDDPEVQFSWFVDDVEVHTAQTKPREEQFNSTFRSVSELPIMHQDWLNGKEFKCRVNSAAFPAPIEKTISKTKGRPKAPQVYTIPPPKEQMAKDKVSLTCMITNFFPEDITVEWQWNGQPAENYKNTQPIMDTDGSYFVYSKLNVQKSNWEAGNTFTCSVLHEGLHNHHTEKSLSHSPG
light: DIQMTQTSSSLSASLGDRVTISCRASQDITQYLNWYQQKPDGTIKLLIYYSSRIHSGVSSRFSGSGSGTDYSLTISNLEQEDIATYFCQQGNTIPLTFDTGTKLELKRADAAPTVSIFPPSSEQLTSGGASVVCFLNNFYPKDINVKWKIDGSERQNGVLNSWTDQDSKDSTYSMSSTLTLTKDEYERHNSYTCEATHKTSTSPIVKSFNRNEC
notes: Mouse antibody expressed in CHO cells; also called CTNI 8C4 antibody

OD450 (reference 630 nm) [1]: 0.03 OD
OD450 (reference 630 nm) [2]: 0.098 OD
OD450 (reference 630 nm) [3]: 1.32 OD
OD450 (reference 630 nm) [5]: 0.054 OD
OD450 (reference 630 nm) [6]: 0.072 OD
OD450 (reference 630 nm) [7]: 0.214 OD
OD450 (reference 630 nm) [8]: 0.569 OD
B2: Mutation 5 (antibody)
heavy: B1 heavy with K99R
light: B1 light
notes: light chain unchanged from WT; heavy chain assembled FR/CDR/constant

Kd [4]: 2.87 nM
koff [4]: 9.47e-05 s⁻¹
kon [4]: 33000 M⁻¹ s⁻¹
B3: Mutation 1-47 (antibody)
heavy: B1 heavy with Y29F, T53S, K99R, Y103P, T106S
light: B1 light with Q31N, S51T, I94L
notes: assembled FR/CDR/constant

OD450 (reference 630 nm) [1]: 0.011 OD
OD450 (reference 630 nm) [2]: 0.172 OD
OD450 (reference 630 nm) [3]: 1.78 OD
OD450 (reference 630 nm) [5]: 0.049 OD
OD450 (reference 630 nm) [6]: 0.068 OD
OD450 (reference 630 nm) [7]: 0.479 OD
OD450 (reference 630 nm) [8]: 1.04 OD
B4: Mutation 3 (antibody)
heavy: B1 heavy with T53S
light: B1 light with Q31N
notes: assembled FR/CDR/constant

Kd [4]: 3.09 nM
koff [4]: 0.000109 s⁻¹
kon [4]: 35200 M⁻¹ s⁻¹
B5: Mutation 1-42 (antibody)
heavy: B1 heavy with T53S, Y59F, K99R, T106S
light: B1 light with D28E, Q31N, S51T, N92H
notes: assembled FR/CDR/constant

OD450 (reference 630 nm) [1]: 0.039 OD
OD450 (reference 630 nm) [2]: 0.307 OD
OD450 (reference 630 nm) [3]: 2.02 OD
Kd [4]: 7.04 nM
koff [4]: 0.000583 s⁻¹
kon [4]: 82800 M⁻¹ s⁻¹
OD450 (reference 630 nm) [5]: 0.088 OD
OD450 (reference 630 nm) [6]: 0.129 OD
OD450 (reference 630 nm) [7]: 0.785 OD
OD450 (reference 630 nm) [8]: 1.6 OD
B6: Mutation 1 (antibody)
heavy: B1 heavy with T53S, K99R
light: B1 light with Q31N, S51T

OD450 (reference 630 nm) [1]: 0 OD
OD450 (reference 630 nm) [2]: 0.248 OD
OD450 (reference 630 nm) [3]: 1.95 OD
OD450 (reference 630 nm) [5]: 0.058 OD
OD450 (reference 630 nm) [6]: 0.072 OD
OD450 (reference 630 nm) [7]: 0.728 OD
OD450 (reference 630 nm) [8]: 1.44 OD
B7: Mutation 2 (antibody)
heavy: B1 heavy with K99R
light: B1 light with S51T
notes: assembled FR/CDR/constant

Kd [4]: 3.53 nM
koff [4]: 0.000171 s⁻¹
kon [4]: 48500 M⁻¹ s⁻¹
B8: Mutation 1-44 (antibody)
heavy: B1 heavy with T53S, K99R, Y103P, T106S
light: B1 light with Q31N, S51T, I54L, N92H, I94L
notes: assembled FR/CDR/constant

Kd [4]: 9.02 nM
koff [4]: 0.00019 s⁻¹
kon [4]: 21100 M⁻¹ s⁻¹
B9: Mutation 1-45 (antibody)
heavy: B1 heavy with Y29F, T53S, Y59F, K99R, Y103F
light: B1 light with D28E, Q31N, S51T
notes: assembled FR/CDR/constant

Kd [4]: 4.93 nM
koff [4]: 0.000274 s⁻¹
kon [4]: 55600 M⁻¹ s⁻¹
B10: Mutation 1-46 (antibody)
heavy: B1 heavy with T53S, Y59F, K99R
light: B1 light with D28E, Q31N, S51T, I54L, N92H, I94L
notes: assembled FR/CDR/constant

Kd [4]: 5.37 nM
koff [4]: 0.000248 s⁻¹
kon [4]: 46100 M⁻¹ s⁻¹
B11: Mutation 1-43 (antibody)
heavy: B1 heavy with Y29F, T53S, K99R, Y103P
light: B1 light with Q31N, S51T, I54L
notes: assembled FR/CDR/constant

OD450 (reference 630 nm) [1]: 0.029 OD
OD450 (reference 630 nm) [2]: 0.098 OD
OD450 (reference 630 nm) [3]: 1.21 OD
OD450 (reference 630 nm) [5]: 0.061 OD
OD450 (reference 630 nm) [6]: 0.069 OD
OD450 (reference 630 nm) [7]: 0.208 OD
OD450 (reference 630 nm) [8]: 0.456 OD
B12: Mutation 4 (antibody)
heavy: B1 heavy with T53S
light: B1 light
notes: as for B2

Kd [4]: 7.04 nM
koff [4]: 0.000583 s⁻¹
kon [4]: 82800 M⁻¹ s⁻¹
B13: Mutation 1-48 (antibody)
heavy: B1 heavy with T53S, K99R, Y103P
light: B1 light with D28E, Q31N, S51T
notes: assembled FR/CDR/constant

Kd [4]: 33.3 nM
koff [4]: 0.000128 s⁻¹
kon [4]: 3840 M⁻¹ s⁻¹
B14: WT 1-1 (antibody, V domains shown)
VH: QVQLQQSGTELAKPGASVKFSCKASDYTFSTYWMYWIKQRPGQGLEWIGYINPSTGHTEYNQKFKDKATLTADKSSSTAYMQLNSLTSEDSAVYYCARRYYGPFAMDYWGQGTSVTVSS
VL: EIFLTQSPAIMSASPGEKVTMTCSASSSVSYAHWYQQKSGTSPKRWIYDSSKIASGIPVRFSGSGSGTSYSLTISSMEAEDAATYYCQNWSTNPYTFGGGTKLEIKR

Kd [4]: 8.35 nM
koff [4]: 0.000743 s⁻¹
kon [4]: 89000 M⁻¹ s⁻¹
B15: WT 1-5 (antibody, V domains shown)
VH: B14 VH with T31S, I51L, R99K, Y101W
VL: B14 VL
